In PMC10644352, “Bromodomain Factor 5 as a Target for Antileishmanial Drug Discovery” (ACS Infectious Diseases, 2023) one finds Kd data, which are given here for one molecule.

No end group written: not given here.

Assay [1] addresses T1, Leishmania donovani bromodomain factor 5 (LdBDF5) first bromodomain, recombinant BD5.1 (Leishmania donovani).
T1 construct: L. donovani BDF5 (LDBPK_091320), construct with the first bromodomain; Plasmid from the Structural Genomics Consortium, pET-15-MHL backbone (Addgene plasmid #26092), which encodes a cleavable His-tag; His-tags were not cleaved for BD5.1; Expected mass 15.2 kDa; Monomer by SEC-MALLS; also called LdBDF5 BD5.1; LdBDF5.1; source: E. coli Rosetta2 (DE3) pLysS, purified (IMAC, SEC)
As to the kind of experiment: fluorescence polarisation; 800 nM 5-FAM peptide, protein 0-300 μM; 20 mM HEPES, 500 mM NaCl, 1 mg/mL BSA, pH 7.5; 30 min at room temperature; one-site-specific binding fit (two-site for BD5T); n = 3. As to conditions: both partners purified. A general note: In fluorescence polarisation assays a small probe gives low polarisation when free and higher when bound to something large.

In assay [2] the target is T2, Leishmania donovani bromodomain factor 5 (LdBDF5) second bromodomain, recombinant BD5.2 (Leishmania donovani).
T2 construct: L. donovani BDF5 (LDBPK_091320), construct with the second bromodomain; His-tags were not cleaved for BD5.2; Expected mass 17.9 kDa; Monomer by SEC-MALLS; also called LdBDF5 BD5.2; source: E. coli Rosetta2 (DE3) pLysS, purified (IMAC, SEC)
The description is as above. As to conditions: both partners purified.

For AK(Ac)GK(Ac)RSADAK(Ac)SSQK(Ac)R (also: 5-FAM at N-terminus or via ethylene diamine linker at C-terminus) [5-FAM-labeled H4(1-15)K2Ac K4Ac K10Ac K14Ac peptide of L. donovani histone H4], the figures for the Kd in assay [1] and in assay [2] were 137 µM and 353 µM, respectively.

In general, Kd refers to the free concentration of one partner at which half of the binding sites on the other are occupied at equilibrium, for simple one-to-one binding.
